B1: N-CAP1, N-terminal fragment of human cyclase-associated protein 1 (original coiled coil and helical folded domain) (domain or fragment)
chain: MADMQNLVERLERAVGRLEAVSHTSDMHRGYADSPSKAGAAPYVQAFDSLLAGPVAEYLKISKEIGGDVQKHAEMVHTGLKLERALLVTASQCQQPAENKLSDLLAPISEQIKEVITFREKNRGSKLFNHLSAVSESIQALGWVAMAPKPGPYVKEMNDAAMFYTNRVLKEYKDVDKKHVDWVKAYLSIWTELQAYIKEFHTTGLAWSKTGPVAKELSGL
B2: ΔCC-N-CAP1, helical folded domain of human CAP1 with the coiled coil (a.a. 1-29) deleted (domain or fragment)
chain: GYADSPSKAGAAPYVQAFDSLLAGPVAEYLKISKEIGGDVQKHAEMVHTGLKLERALLVTASQCQQPAENKLSDLLAPISEQIKEVITFREKNRGSKLFNHLSAVSESIQALGWVAMAPKPGPYVKEMNDAAMFYTNRVLKEYKDVDKKHVDWVKAYLSIWTELQAYIKEFHTTGLAWSKTGPVAKELSGL
B3: TD-N-CAP1, human CAP1 helical folded domain with the coiled coil (a.a. 1-29) replaced by the trimerization domain 2L6HC3_6 (other)
chain: GTKYKIKETLKRLEDSLRELRRILEELKEMLERLEKNPDKDVIVEVLKVIVKAIEASVENQRISAENQKALAESDGYADSPSKAGAAPYVQAFDSLLAGPVAEYLKISKEIGGDVQKHAEMVHTGLKLERALLVTASQCQQPAENKLSDLLAPISEQIKEVITFREKNRGSKLFNHLSAVSESIQALGWVAMAPKPGPYVKEMNDAAMFYTNRVLKEYKDVDKKHVDWVKAYLSIWTELQAYIKEFHTTGLAWSKTGPVAKELSGL
B4: DD-N-CAP1, human CAP1 helical folded domain with the coiled coil (a.a. 1-29) replaced by the dimerization domain 2L4HC2_23 (other)
chain: GTRTEIIRELERSLREQEELAKRLKELLRELERLQREGSSDEDVRELLREIKELVEEIEKLAREQKYLVEELKRQDGYADSPSKAGAAPYVQAFDSLLAGPVAEYLKISKEIGGDVQKHAEMVHTGLKLERALLVTASQCQQPAENKLSDLLAPISEQIKEVITFREKNRGSKLFNHLSAVSESIQALGWVAMAPKPGPYVKEMNDAAMFYTNRVLKEYKDVDKKHVDWVKAYLSIWTELQAYIKEFHTTGLAWSKTGPVAKELSGL
B5: ΔCC-N-CAP2, helical folded domain of human CAP2 with the coiled coil deleted (a.a. 30-220) (domain or fragment)
chain: GNCGEVNGVIAGVAPSVEAFDKLMDSMVAEFLKNSRILAGDVETHAEMVHSAFQAQRAFLLMASQYQQPHENDVAALLKPISEKIQEIQTFRERNRGSNMFNHLSAVSESIPALGWIAVSPKPGPYVKEMNDAATFYTNRVLKDYKHSDLRHVDWVKSYLNIWSELQAYIKEHHTTGLTWSKTGPVASTVS
B6: DD-N-CAP2, human CAP2 helical folded domain with the coiled coil (a.a. 1-29) replaced by the dimerization domain 2L4HC2_23 (other)
chain: GTRTEIIRELERSLREQEELAKRLKELLRELERLQREGSSDEDVRELLREIKELVEEIEKLAREQKYLVEELKRQDGNCGEVNGVIAGVAPSVEAFDKLMDSMVAEFLKNSRILAGDVETHAEMVHSAFQAQRAFLLMASQYQQPHENDVAALLKPISEKIQEIQTFRERNRGSNMFNHLSAVSESIPALGWIAVSPKPGPYVKEMNDAATFYTNRVLKDYKHSDLRHVDWVKSYLNIWSELQAYIKEHHTTGLTWSKTGPVASTVS
B7: TD-N-CAP2, human CAP2 helical folded domain with the coiled coil (a.a. 1-29) replaced by the trimerization domain 2L6HC3_6 (other)
chain: GTKYKIKETLKRLEDSLRELRRILEELKEMLERLEKNPDKDVIVEVLKVIVKAIEASVENQRISAENQKALAESDGNCGEVNGVIAGVAPSVEAFDKLMDSMVAEFLKNSRILAGDVETHAEMVHSAFQAQRAFLLMASQYQQPHENDVAALLKPISEKIQEIQTFRERNRGSNMFNHLSAVSESIPALGWIAVSPKPGPYVKEMNDAATFYTNRVLKDYKHSDLRHVDWVKSYLNIWSELQAYIKEHHTTGLTWSKTGPVASTVS

target: T1, F-actin (skeletal muscle actin, polymerised) ( (rabbit or chicken skeletal …, UniProt P68135 1-377))

| Kd [µM] | Binder |
| --- | --- |
| 0.91 | B1 |
| 5.69 | B2 |
| 2.97 | B3 |
| 3.42 | B4 |

target: T1, F-actin (skeletal muscle actin, …); remark: another data set of the same source

| Kd [µM] | Binder |
| --- | --- |
| 21.9 | B5 |
| 7.11 | B6 |
| 0.68 | B7 |
